pIC50, pKd: −log10 of the molar value. Like-named read-outs stand apart in the source and are kept apart here.
Experiments:
rat NGF (rNGF) = rat NGF (rNGF) (Rattus norvegicus, UniProt P25427); experiment: BIACORE binding affinity to rat NGF
Protocol: (§1) Antigen binding affinities of the antibodies for human NGF were determined by surface kinetics using a real-time biosensor surface plasmon resonance assay (BIACORE™). Antibodies were captured on either a goat, anti-human or anti-mouse IgG polyclonal antibody surface created by direct amine coupling of the capture antibody to a BIACORE™ chip. Various concentrations of human NGF were injected over the captured antibody surfaces while the association of the antigen to the antibody and the dissociation of the bound complex were monitored in real time. Kinetic analysis was performed to obtain the equilibrium dissociation constant (KD) and dissociation rate constant, and the latter was used to calculate the antigen/antibody complex dissociation t1/2 (Table 1).
Human NGF (NGF) is highly homologous in amino acid sequence to mouse NGF (mNGF) and rat NGF (rNGF) with about 90% identity. The binding affinities of the antibodies to both mNGF and rNGF were determined as described above.
The binding affinity of selected purified anti-NGF antibodies to mNGF and rNGF were also determined (Table 6).

C57BL/6 male mice = experiment: Complete Freund's Adjuvant (CFA) test of inflammatory pain, Hargreaves' test; assay type: in vivo, mouse
Protocol: Complete Freund's Adjuvant (CFA) test of inflammatory pain. To determine if anti-NGF antibodies could relieve pain in a chronic peripheral inflammatory mouse model, complete Freund's adjuvant (CFA) was injected subcutaneously (s.c.) into the hind paw of C57BL/6 male mice, causing thermal hyperalgesia, which was measured using the Hargreaves' test (Torres et al. (2007) Pain 130:267-278). Control mice received the vehicle (i.e., PBS) only. After acclimating the mice to the Hargreaves' apparatus (model 336, IITC Life Science) for 2-3 hours per day for 3 days, they were tested in the apparatus with an active intensity setting of 17%. A cut-off time of 25 sec was used to avoid tissue damage. For each mouse, 3 readings were obtained during a period of 30 min per day and the median latency was used for analysis. […] The Hargreaves' test was repeated daily for up to 4 days after CFA injection and % decrease from the baseline in paw withdrawal latency calculated (Tables 12 and 13, mean % change±SEM). […] There was no statistical difference between the tested antibodies and the control antibody. Table 12: n=7 for each group; all groups 10 mg/kg.

[1] = biological target: T1, Human NGF (PC12 cells, rat adrenal medulla cell line) (Homo sapiens, UniProt P01138, DEL136-138/DEL208-209); experiment: PC12 SRE-luciferase assay of NGF signaling through p75 and TrkA; assay type: cell-based
T1 construct: host or cells: NGF added exogenously; receptors endogenous in PC12 cells
T1 sequence (P01138 with tags, fused parts or gaps DEL136-138/DEL208-209): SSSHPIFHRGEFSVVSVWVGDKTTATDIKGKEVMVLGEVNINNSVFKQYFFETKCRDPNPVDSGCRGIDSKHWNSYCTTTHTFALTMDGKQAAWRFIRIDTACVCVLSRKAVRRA
Protocol: The ability of NGF antibodies to block NGF signaling p75 and TrkA receptor-mediated activity was also measured in vitro using a rat adrenal medulla cell line, PC12, which express both receptors endogenously (Urdiales et al. 1998 J. Neuroscience 18(17):6767-6775). Briefly, PC12 cells were stably transfected with a reporter plasmid containing a serum response element (SRE) linked to a luciferase gene. The transfected cells were resuspended at approximately 2.5×10^5 cells per ml and plated at 50,000 cells per well in a 96-well tissue culture plate in Opti-MEM media overnight. The purified antibody proteins were serially diluted in medium (DMEM plus 0.1% BSA) and added to the plated cells at concentrations ranging from 0 to 100 nM. Human NGF was added to the wells to a final concentration of 12.5 pM. Luciferase activity was measured after incubating the cells for 6 hours at 37° C. in a humidified 7.5% CO2 incubator using BRIGHT GLOW™ luciferase assay system (Promega). Control mAb=RN624.

NGF = NGF (Homo sapiens, UniProt P01138, DEL136-138/DEL208-209); experiment: BIACORE surface kinetics, binding affinity for human NGF
Sequence of NGF (P01138 with tags, fused parts or gaps DEL136-138/DEL208-209): as above
Protocol: as §1
Antigen binding affinities of selected purified antibodies for NGF were also determined by surface kinetics employing a real-time biosensor surface plasmon resonance assay (BIACORE™) as described above. For convenience, antibody 301272-3H10-A10 was renamed “REGN261” (HCVR/LCVR SEQ ID NOs:84/92 and hIgG1 SEQ ID NO:541); 301272-6E07-D10 was renamed “REGN263” (HCVR/LCVR SEQ ID NO:208/216 and hIgG1 SEQ ID NO:541).

human NT-3 = biological target: T2, human NT-3 (Homo sapiens, UniProt P20783); experiment: BIACORE cross-reactivity test, NT-3; assay type: binding; conditions: NT-3 1.25 nM to 40 nM; purified antibodies
T2 sequence (P20783 139-257): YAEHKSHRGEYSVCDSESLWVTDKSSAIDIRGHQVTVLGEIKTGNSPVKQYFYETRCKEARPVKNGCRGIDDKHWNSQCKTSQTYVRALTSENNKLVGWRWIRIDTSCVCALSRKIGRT
Protocol: The anti-NGF antibodies were examined for binding cross-reactivity with human NT-3. Briefly, goat anti-human IgG polyclonal antibody was chemically linked to a CM5 chip. Anti-NGF monoclonal antibodies were injected forming a surface of about 50 to 900 RU of immobilized antibody through the interaction with the chip coupled polyclonal antibodies. […] Both association and dissociation phases were monitored and data were analyzed. Results are shown in Table 3 (NB=no binding activity observed).

Sequence of rat NGF (rNGF) (P25427 122-241): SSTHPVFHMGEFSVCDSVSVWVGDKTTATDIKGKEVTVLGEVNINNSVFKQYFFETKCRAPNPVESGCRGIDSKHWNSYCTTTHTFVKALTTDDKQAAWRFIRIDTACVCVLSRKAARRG

tanezumab [RN624] was tested, and the pKd (rat NGF (rNGF); Table 5) was 11.82, the pKd (rat NGF (rNGF); Table 6, selected purified antibodies) was 11.82 and the “% decrease from the baseline in paw withdrawal latency” value (shortened to “% decrease from the baseline”) (C57BL/6 male mice; Table 12, 10 mg/kg s.c. 1 hr before CFA, Baseline, mean±SEM) was 0.0 ± 0.0%. The “% decrease from the baseline” value (C57BL/6 male mice; Table 12, 10 mg/kg s.c., Day 1 after CFA) was −58.3 ± 5.5%, the “% decrease from the baseline” value (C57BL/6 male mice; Table 12, 10 mg/kg s.c., Day 2 after CFA) was −30.9 ± 5.2% and the “% decrease from the baseline” value (C57BL/6 male mice; Table 12, 10 mg/kg s.c., Day 3 after CFA) was −20.7 ± 6.3%. For the same substance, the “% decrease from the baseline” value (C57BL/6 male mice; Table 13, 10 mg/kg s.c., Baseline) was 0.0 ± 0.0%, the “% decrease from the baseline” value (C57BL/6 male mice; Table 13, 10 mg/kg s.c., Day 1 after CFA) was −61.7 ± 9.7% and the “% decrease from the baseline” value (C57BL/6 male mice; Table 13, 10 mg/kg s.c., Day 2 after CFA) was −33.1 ± 17.9%. The “% decrease from the baseline” value (C57BL/6 male mice; Table 13, 10 mg/kg s.c., Day 3 after CFA) was −9.6 ± 15.4%, the “% decrease from the baseline” value (C57BL/6 male mice; Table 13, 10 mg/kg s.c., Day 4 after CFA) was −0.4 ± 18.5% and the pIC50 ([1]; Table 10, 12.5 pM human NGF, 6 hours, read-out: PC12 IC50) was 10.68. For the same substance, the pIC50 ([1]; Table 11, selected purified antibodies, PC12 luciferase, read-out: IC50) was 11.31, the pKd (NGF; Table 1, read-out: KD) was 11.89 and the pKd (NGF; Table 2, selected purified antibodies, read-out: KD) was 11.90. For the same substance, the pKd (NGF; Table 5, read-out: Human NGF KD) was 11.90, the pKd (NGF; Table 6, selected purified antibodies, read-out: NGF KD) was 11.90 and the pKd (human NT-3) was 8.96.
